# Reference: patent US20250066421A1
# *1 amine or outer side, *2 acyl side, *3 side chain or, on linkers, in order; H or OH if unused. Bridges are numbered along the chain shown (N, C = ends). Where no end group is shown, it is not given here. [ ]: non-standard residue; d: D form. TATA = O=C(CC[*:1])N1CN(C(=O)CC[*:2])CN(C(=O)CC[*:3])C1; 1Nal = N[C@@H](Cc1cccc2ccccc12)C(=O)O; PABC = O=C(OCc1ccc(N[*:1])cc1)[*:2]; Glutaryl = O=C(CCCC(=O)[*:2])[*:1]; Cya = N[C@@H](CS(=O)(=O)O)C(=O)O; Hyp = O=C(O)[C@@H]1C[C@@H](O)CN1; dCya = N[C@H](CS(=O)(=O)O)C(=O)O; hArg = N=C(N)NCCCC[C@H](N)C(=O)O; Cit = NC(=O)NCCC[C@H](N)C(=O)O; βAla = NCCC(=O)O; Sar = CNCC(=O)O
# T1: human Nectin-4 (human), Q96NY8
# T1 chain: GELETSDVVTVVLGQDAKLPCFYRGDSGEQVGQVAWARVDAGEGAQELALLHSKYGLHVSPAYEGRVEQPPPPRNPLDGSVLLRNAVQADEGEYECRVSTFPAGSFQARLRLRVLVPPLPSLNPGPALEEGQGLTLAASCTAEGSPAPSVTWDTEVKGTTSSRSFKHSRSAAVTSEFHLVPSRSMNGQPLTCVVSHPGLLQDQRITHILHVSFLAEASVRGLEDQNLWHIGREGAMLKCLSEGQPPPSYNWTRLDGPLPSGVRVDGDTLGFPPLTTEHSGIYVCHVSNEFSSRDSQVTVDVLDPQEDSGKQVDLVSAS
# Columns and labels:
# [1] = biological target: Human Nectin-4 (residues Gly32-Ser349; NCBI RefSeq: NP_112178.2) with C-terminal FLAG tag, biotinylated (human) (UniProt Q96NY8); assay: SPR (Biacore 3000), biotinylated human Nectin-4 on streptavidin CM5 chip, peptide as analyte
# [2] = biological target: T1, human Nectin-4 (human), Q96NY8; assay: FP competition with tracer m4; conditions: remark: other sources report otherwise
# [3] = biological target: Human Nectin-4 (residues Gly32-Ser349; NCBI RefSeq: NP_112178.2) with C-terminal FLAG tag, biotinylated (human) (UniProt Q96NY8); assay: SPR (Biacore 3000), biotinylated human Nectin-4 on streptavidin CM5 chip, drug conjugate as analyte
Kd [1],Binder,other results
2 nM,{Ac-βAla}-[Sar][Sar][Sar][Sar][Sar][Sar][Sar][Sar][Sar][Sar]CP[1Nal][dCya]CM[hArg][Cya]WSTP[Hyp]WC (linker 11-15-25 via TATA) [BCY8280: Ac-[B-Ala][Sar10]-(SEQ ID NO: 209)],
,ACPFGCMKNWAWPIWCTNK (linker 2-6-16 via TATA) [BCY7424],Ki [2]: 562 nM
6.11 nM,{Ac-βAla}-[Sar][Sar][Sar][Sar][Sar][Sar][Sar][Sar][Sar][Sar]CP[1Nal][dD]CM[Cya][Cya]WSTP[Hyp]WC (linker 11-15-25 via TATA) [BCY8281: Ac-[B-Ala][Sar10]-(SEQ ID NO: 210)],
1.92 nM,{Ac-βAla}-[Sar][Sar][Sar][Sar][Sar][Sar][Sar][Sar][Sar][Sar]CP[1Nal][dD]CM[hArg][Cya]WSTP[Hyp]WC (linker 11-15-25 via TATA) [BCY8278: Ac-[B-Ala][Sar10]-(SEQ ID NO: 177)],
0.94 nM,Ac-CP[1Nal][dD]CM[hArg][Cya]WSTP[Hyp]WC (linker 1-5-15 via TATA) [BCY8161: Ac-(SEQ ID NO: 177)],
,{MMAE-PABC-Cit-Val-Glutaryl-βAla}-[Sar][Sar][Sar][Sar][Sar][Sar][Sar][Sar][Sar][Sar]CP[1Nal][dCya]CM[hArg][Cya]WSTP[Hyp]WC (linker 11-15-25 via TATA) [BCY8784: MMAE-PABC-Cit-Val-Glutaryl-BCY8273],Kd [3]: 0.662 nM
